To fix the notation:
B1: TPR 5TU (parent)
chain: GGAUCUUCUCGAUCUAACAAAAAAGACAAAUCUGCCACAAAGCUUGAGAGCAUCUUCGGAUGCAGAGGCGGCAGCCUUCGGUGGCGCGAUAGCGCCAACGUUCUCAACUAUGACACGCAAAACGCGUGCUCCGUUGAAUGGAGUUUAUCAUG

This sample holds only a part of the variants without activity. Where only a bound is given, the exact number is not on record here.

In the data set the parent is B1. Kind of data set: polymerase ribozyme fitness, log enrichment relative to wild type (log ratio); higher = more active; in vitro selection for triplet polymerase activity. In short, it runs like this:
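Genotype fitness is the logarithm of its enrichment divided by wild-type enrichment, using inverse-variance-weighted averages of replicates. That logarithm is base 2. Enrichment was measured by Illumina sequencing of input and output libraries from one triplicate in vitro selection round, with frozen incubation at −7 °C, on PCR-built, transcribed mutant libraries of each subunit of a heterodimeric triplet polymerase ribozyme, retaining genotypes with ≥10 input reads and ≥1 read per output.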
Regarding A40U G86A, the “polymerase ribozyme fitness (log ratio)” value was -0.914.

Turning to U55A A97C, the “polymerase ribozyme fitness (log ratio)” value was found to be 0.466.

In the case of G84U G126U, the “polymerase ribozyme fitness (log ratio)” value was -1.45.

As to A12U A52C G84A A98G, the “polymerase ribozyme fitness (log ratio)” value is -2.65.

Consider U13G U77G U145G U151G, for which the “polymerase ribozyme fitness (log ratio)” value was ≤ -4.2.

For A23U A29C C51U G68U C72G G94C G136A A147C, the “polymerase ribozyme fitness (log ratio)” value was ≤ -4.2.

As to C18G C57A C93U U135C U145G, the “polymerase ribozyme fitness (log ratio)” value is -3.11.

For A39U G50U G83A C96G C103U U135G, the “polymerase ribozyme fitness (log ratio)” value is ≤ -4.2.

In the case of U4G U9A C35A G48C U134G, the “polymerase ribozyme fitness (log ratio)” value was ≤ -4.2.

With U53A G92A, the “polymerase ribozyme fitness (log ratio)” value is -3.87.

For the variant G62U G86C C95G C132U, the “polymerase ribozyme fitness (log ratio)” value is ≤ -4.2.

For A29G G42A G81A C85U, the “polymerase ribozyme fitness (log ratio)” value was -4.09.

Take A20G A21C G84U C95G G117U: the “polymerase ribozyme fitness (log ratio)” value is -0.439.

Consider C51G A52G U102A, for which the “polymerase ribozyme fitness (log ratio)” value was -3.01.

On to U7C G86U, for which the “polymerase ribozyme fitness (log ratio)” value is -3.7.

Take U55A G84U A106C U144C U146C: the “polymerase ribozyme fitness (log ratio)” value was -4.16.

As to C14U G62C C75A C93G, the “polymerase ribozyme fitness (log ratio)” value is ≤ -4.2.

On to U4C G11A C57A C96U G124A A150C, for which the “polymerase ribozyme fitness (log ratio)” value was ≤ -4.2.

Turning to A3C C10G G11U A47U G48A G58C U82G G83A A137U, the “polymerase ribozyme fitness (log ratio)” value was ≤ -4.2.

Consider C51U C95G C105U U145A, for which the “polymerase ribozyme fitness (log ratio)” value was -1.72.

For C93G A97U A121G, the “polymerase ribozyme fitness (log ratio)” value is ≤ -4.2.

Take A20U U101A: the “polymerase ribozyme fitness (log ratio)” value was -2.4.

For A20G C57G A66C G94A C132U, the “polymerase ribozyme fitness (log ratio)” value is ≤ -4.2.

As for C32G U55A, the “polymerase ribozyme fitness (log ratio)” value is -3.78.

Turning to U55A C129A, the “polymerase ribozyme fitness (log ratio)” value is -2.11.

For the variant C10A C85G G141U, the “polymerase ribozyme fitness (log ratio)” value is ≤ -4.2.

As to C5G U55A, the “polymerase ribozyme fitness (log ratio)” value is -0.729.

C54A U56G A110U U145G: the “polymerase ribozyme fitness (log ratio)” value was ≤ -4.2.

For the variant G11U C54A, the “polymerase ribozyme fitness (log ratio)” value is -2.47.

C43A U53A U55A G74A C76A G88U A142G: the “polymerase ribozyme fitness (log ratio)” value was ≤ -4.2.

With A39U U139A, the “polymerase ribozyme fitness (log ratio)” value is -3.87.

On to A16G C69U C85U C131G A142U, for which the “polymerase ribozyme fitness (log ratio)” value was ≤ -4.2.

For the variant C54U G65U G81A C93U A97U, the “polymerase ribozyme fitness (log ratio)” value is ≤ -4.2.

Regarding C54U G58A, the “polymerase ribozyme fitness (log ratio)” value amounted to 0.498.

Consider C76A U78C C103G, for which the “polymerase ribozyme fitness (log ratio)” value was ≤ -4.2.

Regarding A23U C43U U61G G84U A89C C108G U145A, the “polymerase ribozyme fitness (log ratio)” value was ≤ -4.2.

For the variant A49C A52C C57A A91U C96G G112A G117U G143C A150G, the “polymerase ribozyme fitness (log ratio)” value is ≤ -4.2.

Regarding U7A U9A A98G A121G, the “polymerase ribozyme fitness (log ratio)” value was ≤ -4.2.

In the case of C54A C149G, the “polymerase ribozyme fitness (log ratio)” value is -3.71.

Regarding C35A U90A C95U U102A, the “polymerase ribozyme fitness (log ratio)” value is ≤ -4.2.

G50A C69U G84U A98U A122G: the “polymerase ribozyme fitness (log ratio)” value is ≤ -4.2.

Consider C5A A60G, for which the “polymerase ribozyme fitness (log ratio)” value was 0.956.

In the case of U55A C76U A121C, the “polymerase ribozyme fitness (log ratio)” value is -0.181.

In the case of A20G A22U C87U, the “polymerase ribozyme fitness (log ratio)” value was -2.33.

For G50C C129U, the “polymerase ribozyme fitness (log ratio)” value is -3.94.

As to A19C A24G C32U C38U G59A C85A G133U U145C, the “polymerase ribozyme fitness (log ratio)” value is ≤ -4.2.

G94C A97U A150G: the “polymerase ribozyme fitness (log ratio)” value was -1.52.

In the case of U6A C38U U44A U82G C85U C95A U101G, the “polymerase ribozyme fitness (log ratio)” value is ≤ -4.2.

As for G42U U56A C75G A91U G126A U144A, the “polymerase ribozyme fitness (log ratio)” value is ≤ -4.2.

For the variant C57G C72G C79U C103G, the “polymerase ribozyme fitness (log ratio)” value was ≤ -4.2.

For C8A U44A C51A A66G C85U U130G, the “polymerase ribozyme fitness (log ratio)” value is ≤ -4.2.

Take A20G A22C C93A: the “polymerase ribozyme fitness (log ratio)” value is -3.38.

Take A12C A20G A37C C51U G58C A91C: the “polymerase ribozyme fitness (log ratio)” value was ≤ -4.2.

In the case of A22G C108U, the “polymerase ribozyme fitness (log ratio)” value was -4.08.

In the case of G68A A91G G128A, the “polymerase ribozyme fitness (log ratio)” value is ≤ -4.2.

For G25U G71C U145G, the “polymerase ribozyme fitness (log ratio)” value is ≤ -4.2.

In the case of C10G A16U C54U U56A G59A G88C C105G A110G A119U C123A U145G U148C, the “polymerase ribozyme fitness (log ratio)” value was ≤ -4.2.

For A22U A40G G84A A119G, the “polymerase ribozyme fitness (log ratio)” value was -2.75.

U53C A64G U90C G117C: the “polymerase ribozyme fitness (log ratio)” value is ≤ -4.2.

In the case of G59C G124A, the “polymerase ribozyme fitness (log ratio)” value is -1.57.

With G94A G133U, the “polymerase ribozyme fitness (log ratio)” value was -3.19.

As to A21G C36A C57U A64G G94U G126C A138G, the “polymerase ribozyme fitness (log ratio)” value was ≤ -4.2.

As for A17G G25C G50A G86A C93G, the “polymerase ribozyme fitness (log ratio)” value is ≤ -4.2.

Consider A60U C99U C118U, for which the “polymerase ribozyme fitness (log ratio)” value is -2.07.

As to U31G U145A, the “polymerase ribozyme fitness (log ratio)” value worked out at 0.652.

For the variant C32U G80U U102G A113U C125U G126A, the “polymerase ribozyme fitness (log ratio)” value was ≤ -4.2.

Take U31G U53A A89C C93G G100A A137C A147U G152C: the “polymerase ribozyme fitness (log ratio)” value was ≤ -4.2.

Take C35U A41G C96A U144A: the “polymerase ribozyme fitness (log ratio)” value was -0.485.

Take C27A A28U A39C C54G C96A: the “polymerase ribozyme fitness (log ratio)” value is ≤ -4.2.

For the variant C57A C87U, the “polymerase ribozyme fitness (log ratio)” value is -1.52.

Take A60C G81C C87A: the “polymerase ribozyme fitness (log ratio)” value was ≤ -4.2.

Consider U4G G50C A73G U102C, for which the “polymerase ribozyme fitness (log ratio)” value is ≤ -4.2.

In the case of C10A A24C G71A U77G G94A C99A C125U G140C, the “polymerase ribozyme fitness (log ratio)” value was ≤ -4.2.

For the variant A24C A73G G83C G143U, the “polymerase ribozyme fitness (log ratio)” value was ≤ -4.2.

For U6A A23U A30U G46A A47C, the “polymerase ribozyme fitness (log ratio)” value is ≤ -4.2.

In the case of C32U G62A C76G G84U C116U G140A C149U, the “polymerase ribozyme fitness (log ratio)” value is ≤ -4.2.

For C32G C38G C93G G133U, the “polymerase ribozyme fitness (log ratio)” value is -3.72.

G11U C54U U77G G92U U145A A147U: the “polymerase ribozyme fitness (log ratio)” value was ≤ -4.2.

Take C38A C76U A110G A113G G152A: the “polymerase ribozyme fitness (log ratio)” value was ≤ -4.2.

On to C8A G84A, for which the “polymerase ribozyme fitness (log ratio)” value is -3.28.

As for A29G C43U A66C C96U C103A, the “polymerase ribozyme fitness (log ratio)” value was ≤ -4.2.

Take C57A A150U: the “polymerase ribozyme fitness (log ratio)” value amounted to 1.72.

For A22G C85G, the “polymerase ribozyme fitness (log ratio)” value is -2.32.

The values are drawn from the RNAGym collection of RNA variant scans (doi:10.1073/pnas.2313332121).
